Experimental data from patent publication US20220177587A1, “METHODS AND USES OF VARIANT CD80 FUSION PROTEINS AND RELATED CONSTRUCTS” (Alpine Immune Sciences, Inc., priority 2018, published 2022).
Positions count from the first letter of the chain named. Names and notes keep the numbering of the source.

B1: E35D/N48K (protein)
chain: VIHVTKEVKEVATLSCGHNVSVEELAQTRIYWQKDKKMVLTMMSGDMKIWPEYKNRTIFDITNNLSIVILALRPSDEGTYECVVLKYEKDAFKREHLAEVTLSVKAD
B2: E35D/M47V/N48K/V68M/L85Q (protein)
chain: B1 chain with M47V, V68M, L85Q
B3: E35D/M47V/V68M/L85Q/K89N (protein)
chain: B1 chain with M47V, K48N, V68M, L85Q, K89N
B4: E35D/N48K/K89N (protein)
chain: B1 chain with K89N
B5: E35D/D46V/M47V/V68M/L85Q (protein)
chain: B1 chain with D46V, M47V, K48N, V68M, L85Q
B6: M47V/N48K/V68M (protein)
chain: B1 chain with D35E, M47V, V68M
B7: M47V/V68M (protein)
chain: B1 chain with D35E, M47V, K48N, V68M
B8: M47V/N48K/K89N (protein)
chain: B1 chain with D35E, M47V, K89N
B9: E35D/M47V/N48K/K89N (protein)
chain: B1 chain with M47V, K89N
B10: E35D/D46V/M47V/N48K/V68M (protein)
chain: B1 chain with D46V, M47V, V68M
B11: E35D/K89N (protein)
chain: B1 chain with K48N, K89N
B12: M47L/V68M/A71G/D90G (protein)
chain: B1 chain with D35E, M47L, K48N, V68M, A71G, D90G

Biological target: huCTLA4 (Homo sapiens, UniProt P16410)
Experiment: Flow binding to CHO cells stably expressing CTLA4
Design: huCTLA4 and huPD-L1, full-length mammalian surface expression constructs were generated; expressed in transfected cells; host or cells: CHO cells, lentiviral transduction, sorted to >98% purity
Conditions: Table E19; CHO cells stably expressing CTLA4; 33.3 nM
In short: (§1)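 Cells were first blocked in PBS with 1% BSA and 0.1% sodium azide. Primary staining with fusion protein ran 45 min on ice, and secondary staining with PE anti-human Fc at 1:150 ran 30 min on ice.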

Chain of huCTLA4 (P16410 36-223): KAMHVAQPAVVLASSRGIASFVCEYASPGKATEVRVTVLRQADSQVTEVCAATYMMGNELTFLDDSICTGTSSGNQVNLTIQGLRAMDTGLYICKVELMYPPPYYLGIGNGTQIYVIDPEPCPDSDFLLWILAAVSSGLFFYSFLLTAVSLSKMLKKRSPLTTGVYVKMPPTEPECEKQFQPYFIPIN

Molecule	CTLA4 MFI at 33.3 nM
B1	41325
B2	26104
B3	30276
B4	34727
B5	36463
B6	34612
B7	7282
B8	42071
B9	43756
B10	23880
B11	21755

Same assay, conditions: Table E19; MFI at 33.3 nM relative to WT CD80 ECD-Fc (Abcam)

Molecule	CTLA4 Fold change to WT CD80 [fold]
B1	1.0
B2	0.6
B3	0.7
B4	0.9
B5	0.9
B6	0.9
B7	0.2
B8	1.0
B9	1.1
B10	0.6
B11	0.5

Same assay, conditions: Table E20; CHO cells stably expressing CTLA4; 33.3 nM

Molecule	CTLA4 MFI at 33.3 nM
B12	17418

Same assay, conditions: Table E20; MFI at 33.3 nM relative to CD80 WT IgV-Fc

Molecule	CTLA4 Fold change to WT CD80 [fold]
B12	12.8

Biological target: T1, CD28 (Homo sapiens, UniProt P10747)
Experiment: Flow binding to Jurkat/IL2 reporter cells (CD28)
Design: host or cells: Jurkat cells expressing an IL-2-luciferase reporter
Conditions: Table E19; Jurkats (CD28); 33.3 nM
In short: as §1

Molecule	CD28 MFI at 33.3 nM
B1	194
B2	118
B3	246
B4	411
B5	331
B6	641
B7	328
B8	366
B9	701
B10	1085
B11	236

Same assay, conditions: Table E19; MFI at 33.3 nM relative to WT CD80 ECD-Fc (Abcam)

Molecule	CD28 Fold change to WT CD80 [fold]
B1	0.3
B2	0.2
B3	0.3
B4	0.6
B5	0.5
B6	0.9
B7	0.5
B8	0.5
B9	1.0
B10	1.5
B11	0.3

Same assay, conditions: Table E20; Jurkats (CD28); 33.3 nM

Molecule	CD28 MFI at 33.3 nM
B12	3610

Same assay, conditions: Table E20; MFI at 33.3 nM relative to CD80 WT IgV-Fc

Molecule	CD28 Fold change to WT CD80 [fold]
B12	82.2

Biological target: T1, CD28
Experiment: Jurkat/IL2 + CHO/OKT3 +/- PD-L1 reporter assay: PD-L1-dependent CD28 costimulation
Type: cell-based
Design: host or cells: Jurkat cells expressing an IL-2-luciferase reporter
Conditions: Table E21; Jurkat/IL2 + CHO/OKT3/PD-L1; 5.0 nM
In short: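 Readout is relative luminescence from lysed cocultures: test protein given 15 min at room temperature to Jurkat cells before adding CHO artificial APCs displaying OKT3 alone or OKT3 plus PD-L1, then 5 h at 37 °C, 5% CO2.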

Molecule	Fold Increase over WT CD80-IgV-Fe [fold]
B1	5.1
B2	7.9
B3	7.4
B4	6.3
B5	8.5
B6	5.8
B7	4.8
B8	4.1
B9	7.1
B10	6.1
B11	2.5

Same assay, conditions: Table E21; Jurkat/IL2 + CHO/OKT3/PD-L1; CD80 Conc 5.0 nM

Molecule	Relative Luciferase Units (RLU), CD80 Conc 5.0 nM [RLU]
B1	590
B2	907
B3	854
B4	719
B5	980
B6	664
B7	553
B8	472
B9	814
B10	696
B11	293

Same assay, conditions: Table E22; Jurkat/IL2 + CHO/OKT3/PD-L1; 5.0 nM

Molecule	Fold Increase over WT CD80-IgV-Fe [fold]
B12	1.98

Same assay, conditions: Table E22; Jurkat/IL2 + CHO/OKT3/PD-L1; CD80 Conc 5.0 nM

Molecule	Relative Luciferase Units (RLU), CD80 Conc 5.0 nM [RLU]
B12	771

Biological target: huPD-L1 (Homo sapiens, UniProt Q9NZQ7)
Experiment: Flow binding to CHO cells stably expressing PD-L1
Design: huCTLA4 and huPD-L1, full-length mammalian surface expression constructs were generated; expressed in transfected cells; host or cells: CHO cells, lentiviral transduction, sorted to >98% purity
Conditions: Table E19; CHO cells stably expressing PD-L1; 33.3 nM
In short: as §1

Chain of huPD-L1 (Q9NZQ7 19-290): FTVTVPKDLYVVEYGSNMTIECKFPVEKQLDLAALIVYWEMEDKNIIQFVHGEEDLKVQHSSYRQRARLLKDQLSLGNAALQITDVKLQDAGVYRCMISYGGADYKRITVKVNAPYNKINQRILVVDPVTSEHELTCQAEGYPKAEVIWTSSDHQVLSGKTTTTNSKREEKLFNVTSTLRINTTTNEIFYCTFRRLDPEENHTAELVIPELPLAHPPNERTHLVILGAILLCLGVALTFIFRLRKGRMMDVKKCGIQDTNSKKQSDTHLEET

Molecule	PD-L1 MFI at 33.3 nM
B1	6545
B2	10479
B3	12085
B4	5766
B5	26290
B6	14464
B7	4294
B8	2366
B9	6669
B10	25940
B11	757

Same assay, conditions: Table E19; MFI at 33.3 nM relative to WT CD80 ECD-Fc (Abcam)

Molecule	PD-L1 Fold change to WT CD80 [fold]
B1	51.1
B2	81.9
B3	94.4
B4	45.0
B5	205.4
B6	113.0
B7	33.5
B8	18.5
B9	52.1
B10	202.7
B11	5.9

Same assay, conditions: Table E19; ratio of MFI at 33.3 nM

Molecule	Ratio of PDL1:CD28
B1	33.7
B2	88.8
B3	49.1
B4	14.0
B5	79.4
B6	22.6
B7	13.1
B8	6.5
B9	9.5
B10	23.9
B11	3.2

Same assay, conditions: Table E20; CHO cells stably expressing PD-L1; 33.3 nM

Molecule	PD-L1 MFI at 33.3 nM
B12	31114

Same assay, conditions: Table E20; MFI at 33.3 nM relative to CD80 WT IgV-Fc

Molecule	PD-L1 Fold change to WT CD80 [fold]
B12	713.6

Same assay, conditions: Table E20; ratio of MFI at 33.3 nM

Molecule	Ratio of PDL1:CD28
B12	8.6
